In PMC5462532:

Experiments:
[1] = biological target: HHARI of the HHARI/UbcH7 complex analysed by SEC-MALS (human) (UniProt Q9Y4X5); test: SEC-MALS; HHARI/UbcH7 complex at 1.5 mg/ml in 25 mM MOPS, 150 mM NaCl, pH 7.5; Superose 6 Increase 3.2/300; room temperature
[2] = biological target: UbcH7 (wild type, for ITC) (human) (UniProt P68036); test: ITC; 250-300 μM RING1 constructs in the syringe, 25-30 μM E2 or E2∼Ub in the cell; 293 K; 25 mM Hepes pH 7.5, 150 mM NaCl, 0.5 mM TCEP; 1:1 fit; repeated twice, averages
[3] = biological target: UbcH7 (C17S, C86K, C137S)∼Ub conjugate (for ITC) (human) (UniProt P68036); test: as above

stoichiometry N [1]	Kd [2]	dH [2]	stoichiometry N [2]	Kd [3]	dH [3]	stoichiometry N [3]	Substance
1							UbcH7 of the HHARI/UbcH7 complex analysed by SEC-MALS (from UniProt P68036 1-154) (enzyme)
	294 nM	4.3 kcal/mol	1	116 nM	3.7 kcal/mol	1	HHARI RING1 (aa 177-270), wild type (from UniProt Q9Y4X5 177-270) (domain or fragment)
